# From the nanobody polyreactivity screen of Harvey et al. (2022)
# Test: yeast display, Sf9 membrane polyspecificity reagent, FACS + sequencing; frameworks hold sequencing errors
# Summary of the method: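 Polyreactivity labels are assigned by the sorting gate from which each nanobody was recovered. The gates were low and high (top ~1%), set on anti-HA fluorescence for expression and streptavidin fluorescence for reagent binding. Before sorting, galactose-induced (36–48 hours) yeast display cells were stained for 1 hour at 4 °C with 10% biotinylated, detergent-solubilized Sf9 membrane reagent.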
row,Sequence,polyreactivity (PSR sort gate)
1,QVQLVDSGGGLVQAGGSLRLSCAASGRTFYFNAMGWYRQAPGKERELVAAITSSDSTYYADSVKGRFTISRDNAKNTVYLQMISLKPEDTAVYYCNADYFYWREMDYWGQGTQVTVSS,low polyreactivity
2,QVQLVDSGGGLVQAGGSLRLSCAASGRTFYRNAMGWYRQAPGKVRELVAGISSGGFTYYADSVKGRFTITRDNAKNTFYLQMNSLKPEDTPVYYCAASAWSGYWFDYWGQGTQVTVSS,high polyreactivity
3,QVQLVDSGGGLVQAGGSLRLSCAASGRTFYTNAMGWYRQAPRKERQLVAAITRGGSTYYADSVKGRFTISRDNAKNTVYLQMNSLKPEDTAVYYCAADGRFRSHTFYYWGQGTQVTVSS,high polyreactivity
4,QVQLVDSGGGLVQAGGSLRLSCAASGRTIGGNAMGWSRQAPGKERELVAGINISGGSTNYADSVKGRFTISRDNAKNTVYLQMNSLKPEDTAVYYCNADTAVYAWDDDYWGQGTQVTVSS,low polyreactivity
5,QVQLVDSGGGLVQAGGSLRLSCAASGRTILINAMGWDRQAPGKERELVAGITRNGGTTYYADSVKGRFTISRDNAKNTVYLQMNSLKPEDTAVYYCAKRYPSWFNYWGQGTQVTVSS,high polyreactivity
6,QVQLVDSGGGLVQAGGSLRLSCAASGSIFDPNAMGWYRQAPGKERELVADIDSSDGSTYYADSVKGRFTISRDNAKNTVYLQMNSLKPEDTAVYYCNALSALAVEDGYWGQGTQVTVSS,low polyreactivity
7,QVQLVDSGGGLVQAGGSLRLSCAASGSIFDSYVKGWYRQAPGKERELVAAITYSGGSTYADSVKGRFTISRDNAKNTVYLQMNSLKPEDTAVYYCAAASYFYMFLLEDYWGQGTHVTVSS,low polyreactivity
8,QVQLVDSGGGLVQAGGSLRLSCAASGSIFEGYVMGWYRQAPGKERELVAAITTGGGSTYYADSVKGRFTISRDNAKNTVDLPMNSLKPEDTAVYYCAKDYWFGYEYWGQGTQVTVSS,low polyreactivity
9,QVQLVDSGGGLVQAGGSLRLSCAASGSIFGYYTMGWYRQAPGKERELVAAITSGGSTKYADSVKGRITISRDNAKNTVYLQMNCLKPEDTAVYYCAKVSYYPWRYDYWGPGTQVTVSS,low polyreactivity
10,QVQLVDSGGGLVQAGGSLRLSCAASGSIFKFYTMGWYRQAPGKERQLVAAISSSDGSTHYADSVKGRFTISRDNAKNTVYLQMNSLKPEDTAVYYCARRRYSRYSVTRGNYWGQGTQVTVSS,high polyreactivity
11,QVQLVDSGGGLVQAGGSLRLSCAASGSIFLAYAMGWYRQAPGKEREFVAAISFSDGSTYYADSVKGRFTISRDNAKNTVYLQMNSLKPEDTAVYYCNKGASPDDYDFWGQGTQVTVSS,low polyreactivity
12,QVQLVDSGGGLVQAGGSLRLSCAASGSIFRGYAMGWYRQAPGKERELVAAIRRRAGTTYYADSVKARFTISRDNAKNTVYLQMNSLKPEDTAVYYCAVERYHSGDDYLGQGTQVTVSS,high polyreactivity
13,QVQLVDSGGGLVQAGGSLRLSCAASGSIFYVYAMGWYRQAPGKERELVAAISWTGGSTDYADSVKGRFTISRDNAKNTVYLHMNSLKPEDTAVYYCATELGYGDWYNYWGQGTQVTVSS,low polyreactivity
14,QVQLVDSGGGLVQAGGSLRLSCAASGSIIFYNAMGWYRQAPGKERELVAAISRGGNTNYADSVKGRFTISRDNAKNNFYLQMNSLKSEDTAVYYCNADLVQYWGRRRWYDYWGQGTQVTVSS,low polyreactivity
15,QVQLVDSGGGLVQAGGSLRLSCAASGSIIGVNAMGWYRQAPGKERELVAAISWSGSSTRYADSVKGRFTISRDNAKNTVYLQMNSLKPEDTAVYYCAAEAQTKWWDYYYWGQGTQVTVSS,high polyreactivity
16,QVQLVDSGGGLVQAGGSLRLSCAASGSIVVLYAMGWYRQAPGKERELVAAITSGASTNYADSVKGRFTISRDNAKNTVYLQMNSLKPEDTAVYYCHTGSRLDRVDSWGQGTQVTVSS,low polyreactivity
17,QVQLVDSGGGLVQAGGSLRLSCAASGSNFTKYAMGWYRQAPGKERELVAAILRSGDRTYYADSVKGRFTISRDNAKNTVYLQMTSMIPEDTAVYYCAAGYSQYWTDPQGFAYDYWGQGTQVTVSS,low polyreactivity
18,QVQLVDSGGGLVQAGGSLRLSCAASGSNYVDYDMGWYRQAPGKERDLVAALTYSGARTYYADSVKGRFTISRDNAENTVYLQMNSLKPEDTAVYYCNAAGYPYPYRGDYDYWGQGTQVTVSS,low polyreactivity
19,QVQLVDSGGGLVQAGGSLRLSCAASGSTFKYYGMGWYRQAPGKERELVASISSSGTRTYYADSVKGRFTISRDNAKNTVYLQMNSLKAEDTAVYYCAADSYATYFLYDSWGQGTQVTVSS,low polyreactivity
20,QVQLVDSGGGLVQAGGSLRLSCAASGSTFRRNAMGWYRHAPGKERELVAAINRRGGDTYYADSVKGRFTISCDNAKNTVYLQMNSLKPEDTAVYYCAAEWQSVAFDWGGYGDDYWGQGTQVTVSS,low polyreactivity
21,QVQLVDSGGGLVQAGGSLRLSCAASGSTFVYYAMGWYRQAPGKERELVAAITWNGGSTYYADSVKGRFTISRDNAKNTVYLQMNSLKPEDTAVYYCNAEYPVYFEGYPYYWDYWGDSWGQGTQVTVSS,high polyreactivity
22,QVQLVDSGGGLVQAGGSLRLSCAASGSTIKYYAMGWYRQEPGKERELVAAINWSGDSTYYADSVKGRFTISRDYAKITVYLQKISLKPEDTAVYYCAVRYQKRAYYGSNYWGQGTQVTVSS,high polyreactivity

row,Sequence,polyreactivity (PSR sort gate)
1,QVQLVDSGGGLVQAGGSLRLSCAASGSTYGLYAMGWYRQATGKERELVAAITWRASSTYYADSVKGRFTISRDNAKNTVFLQMNSLKPEDTAVYYCAATWYSRFSRGDYDYWGQGTQVTVSS,high polyreactivity
2,QVQLVDSGGGLVQAGGSLRLSCAASGYTFGNNARAWYRQAPGKERELVARIRTNGGTTYYADSVKGRFTISRDNAKYTVYLQMNSLKPEDTAVYYCNAYRGYEYDYWGQGTQVTVSS,low polyreactivity
3,QVQLVDSGGGLVQAGGSLRLSCADSGRTFWGYGKGWYRQATGKERELVATISSGGSTYYADSVKGRFTISRDNAKNTVYLQMNSLKPEDTAVYYCAARPPPTYWRYQSDYWGQGTQVTVSS,high polyreactivity
4,QVQLVDSGGGLVQAGGSLRLSCADSGSIFGVYAMGWYRQATGKESELVAAISISDGITYYADSVKGRFTISRDNAKNNVYLQMNSLKPEDTAVYYCAAELSPYYYGESYDYWGQGTQVTVSS,high polyreactivity
5,QVQLVDSGGGLVQAGGSLRLSCAPSGFTIYKYVMGWDRQAPGKDREVVAAITTCGGSTYYADSVKGRFTISRDYAKNTVYLQMNSLKPEHTAVDYCNARSLHTSEGDYWGQGTQVTVSS,low polyreactivity
6,QVQLVDSGGGLVQAGGSLRLSCGASGFIIARNAMGGYRHPPGKERELVAAISRNGGRTSYADSVKGRFTISRDTAKNTVYLQMNSLNPEDTAVYYCAKAQGYVTWTGAYAYDYWGQGTQVTVSS,high polyreactivity
7,QVQLVDSGGGLVQAGGSLRLSCSASGITNGRNTMGLYRQAPGKERELVAAIDSGGNTYADSVKGRFTISRDNAKNTVYLQMNSLKPEDTAVYYCAVDGGEFSSYGYWGQGTQVTVSS,low polyreactivity
8,QVQLVDSGGGLVQAGGSLRLSFAASGSTFHTYAMGWYRQAPGTERELVATNTWDGGRTYYADSVKGRFTISRDIAKYTVYLQMNSLKPEDTAVYYCASVYWSIEMDYWGQGSQVTVSS,low polyreactivity
9,QVQLVDSGGGLVQAGGSLRLSSAASGITFQRYAMGWYRQAPGKERELVAGINGRGGSTYYADSVKGRFTISRDNAKNTVYLQMNSLKPEDTAVYYCNAVYAGRYFGFDYWGQGTQVTVSS,high polyreactivity
10,QVQLVDSGGGLVQAGGSLRLTCAASGSTYYRNAMGWYRQAPGKETEFVAAISFRGGGTYADSVKGRFTISRDNAKNTVYLQMNSLKPDDTAVYYCDSDHLSYRRRYEYWGQGTKVTVSS,low polyreactivity
11,QVQLVDSGGGLVQAGGSLRVSCAASGIIFYYNAMGWYRQAPGKEREFVASISSRGGSTYYADSVKGRFTISRDNSKNTVYLQMNSLKPEDTAVYYCAAAFDWRRQRYNYWGQGTQVTVTS,high polyreactivity
12,QVQLVDSGGGLVQAGGSLSLSCAASGSTFGYYSMGWYRESPGKERELVAAITWSGDSTYADSVKGRFTISRDNAKNTVYLQMNSLKPEDTAVYYCARRGFLGHWPRPSYDYWGQGTQVTVSS,low polyreactivity
13,QVQLVDSGGGLVQAGVSLRISCAASGIIIRYYGMGWYRQAPGKERELVARIRWTGGSTYYADSVKGRFTISRYNAKNTVYLQMNSLKQEETAVYYCAADIWQYSRIANSHPYDYWGQGTQVTVSS,low polyreactivity
14,QVQLVDSGGGLVQARGSLRLSCAASGYNFGNAMGWYRQPPGQEREFVAAISSSGSSTYYADSVKGRFTISRDNAKNTVYLQMNSLKPEDTAVYYCAKSRRSAAPKYDYWGQGTQVTVSS,high polyreactivity
15,QVQLVDSGGGLVQEGGSLRLSCAASGLTFYSNAMGWYRQARGKERELVARISTGGSTYADSVKGRFTISRDNAKNTVYLQMNSLKPEVTAVYYCAAEYNLRTYWGDYWGQGTQVTVSS,low polyreactivity
16,QVQLVDSGGGLVQEVGSLRLSCAASGSTFPFNAMGWYRQAPGKERELVATISGRGGSTYYADSVKGRFTISRDNAKNTVYLQMNSLKPEDTAVYYCAAEIHDRFDSWGQGTQVTVSS,low polyreactivity
17,QVQLVDSGGRLVQAGGSLRLSCAASGRIFVNNAMRWYRQAPGKERELVAAITRGGSTYYADSVKGRFTLSRDNAKNTVYLQMNSLKPEDTAVYYCDSDYQRNDFRWYDYWGQGTHVTVSS,low polyreactivity
18,QVQLVDSGGRLVQAGGSLRLSSPASGLIISAYAMGWYRQAPGKEMEFVAAISRSGGITYYADSVKGRFTISRDNAKNTVYLQMNSLKPEDTAVYYCNARLYDPTLKFGYWGQGTQVTVSS,high polyreactivity
19,QVQLVDSGGVLVQAGGSLSLSCAASGITFPINAMGWYRQAPGKEREFVATISFSGASTYYADSVKGRFTISRDNAKNSVYLQMNSLKREDTAVYYCAARWKPPYWGRYYYWGQGTQVTVSS,high polyreactivity
20,QVQLVDSGRGLVQAGGSLRLSCAASGSIFYYNTMGWYRQAPVKERELVAAISSSDGSTYYADSVKGRFTISRDNAKNTVYLQMNSLKPEDTAVYYCNADLIYGEEYDYWGQGTQVTVSS,low polyreactivity
21,QVQLVDSVGGLVQAGGSLRLSCAASGFIFGRNSMGWYIQAPGKERELVAGISSRGGRTYYADSVKGRFTISRDNAKNTVYLQMNSLKPEDTAVYYCAAAGLTDYVRYDYWGQGTQVTVSS,high polyreactivity
